Publication PMC5697745

Target: FAM-AIP-I, fluorescein-tagged AIP-I (Staphylococcus aureus (group I))
Experiment: fluorescence polarisation

Substance: AgrC-I^R238H, constitutively active full-length AgrC-I mutant, in nanodiscs (receptor)
- Kd: 51 nM
